Target: T1, murine PD-1 receptor (mouse, UniProt Q02242 25-288)
T1 construct: Endogenous protein in tissue lysates, detected as a 50 kDa band on a western blot; also called mouse PD-1; mouse PD-1 receptor
T1 sequence (looked up): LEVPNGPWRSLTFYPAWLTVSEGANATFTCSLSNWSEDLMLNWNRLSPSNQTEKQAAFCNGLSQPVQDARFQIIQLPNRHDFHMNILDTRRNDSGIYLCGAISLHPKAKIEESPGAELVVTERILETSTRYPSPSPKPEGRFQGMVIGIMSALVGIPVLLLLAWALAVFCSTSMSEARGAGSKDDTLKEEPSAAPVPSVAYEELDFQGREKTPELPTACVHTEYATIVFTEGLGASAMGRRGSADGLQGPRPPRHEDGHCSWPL
Assay: western blot of mouse liver and lung lysates probed with nivolumab

binding result: binds
B1: human recombinant Nivolumab (Thermofischer MA5-41974) (antibody, human IgG4 S228P, kappa, V domains shown)
VH: QVQLVESGGGVVQPGRSLRLDCKASGITFSNSGMHWVRQAPGKGLEWVAVIWYDGSKRYYADSVKGRFTISRDNSKNTLFLQMNSLRAEDTAVYYCATNDDYWGQGTLVTVSS
VL: EIVLTQSPATLSLSPGERATLSCRASQSVSSYLAWYQQKPGQAPRLLIYDASNRATGIPARFSGSGSGTDFTLTISSLEPEDFAVYYCQQSSNWPRTFGQGTKVEIKR
notes: Bought reagent, described as a fully humanized monoclonal antibody produced in mammalian cells such as HEK293; also called human Nivolumab; mammalian cell produced nivolumab (anti-PD1)
